Bridge positions count the residues as written; N and C are the ends. Square brackets hold non-standard residues; d marks the D form. Primed or numbered codes have the meaning given here. Ends that are not written are not given here. PEG9(31 atoms) = 1-amino-3,6,9,12,15,18,21,24,27-nonaoxatriacontan-30-oic acid; Oic = O=C(O)[C@@H]1C[C@@H]2CCCC[C@@H]2N1; Pro‑D2″ = L-Proline (3,4-2H), deuterated; PEG6 = NCCOCCOCCOCCOCCOCCOCCC(=O)O; NMeI = CC[C@H](C)[C@H](NC)C(=O)O; tBuAla = CC(C)(C)C[C@H](N)C(=O)O; PEG5 = NCCOCCOCCOCCOCCOCCC(=O)O; Pen = CC(C)(S)[C@H](N)C(=O)O; NMeA = CN[C@@H](C)C(=O)O; Orn = NCCC[C@H](N)C(=O)O; Abu = CC[C@H](N)C(=O)O; Sar = CNCC(=O)O
What was measured:
[1] = target: T1, recombinant human MASP1 active protease (amino acids 297-699, C-terminal His Tag) (human, UniProt P48740 297-699); test: cell-based or functional assay
T1 sequence: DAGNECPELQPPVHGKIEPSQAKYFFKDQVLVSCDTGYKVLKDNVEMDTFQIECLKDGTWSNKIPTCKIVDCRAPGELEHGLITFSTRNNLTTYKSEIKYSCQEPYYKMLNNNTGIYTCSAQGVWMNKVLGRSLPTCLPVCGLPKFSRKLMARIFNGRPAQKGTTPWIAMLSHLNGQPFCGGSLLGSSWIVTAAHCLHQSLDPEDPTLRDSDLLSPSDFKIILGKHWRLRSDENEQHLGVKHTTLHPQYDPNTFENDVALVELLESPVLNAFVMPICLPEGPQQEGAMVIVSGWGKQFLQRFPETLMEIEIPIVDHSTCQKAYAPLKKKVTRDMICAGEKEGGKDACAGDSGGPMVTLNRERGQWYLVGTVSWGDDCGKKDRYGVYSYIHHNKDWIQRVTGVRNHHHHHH

[2] = target: recombinant human MASP2 active protease (amino acids 297-686, C-terminal His Tag) (human, UniProt O00187 297-686); test: cell-based or functional assay
Chain of recombinant human MASP2 active protease (amino acids 297-686, C-terminal His Tag) (O00187 other isoform, or with tags, fused parts or gaps limits assumed): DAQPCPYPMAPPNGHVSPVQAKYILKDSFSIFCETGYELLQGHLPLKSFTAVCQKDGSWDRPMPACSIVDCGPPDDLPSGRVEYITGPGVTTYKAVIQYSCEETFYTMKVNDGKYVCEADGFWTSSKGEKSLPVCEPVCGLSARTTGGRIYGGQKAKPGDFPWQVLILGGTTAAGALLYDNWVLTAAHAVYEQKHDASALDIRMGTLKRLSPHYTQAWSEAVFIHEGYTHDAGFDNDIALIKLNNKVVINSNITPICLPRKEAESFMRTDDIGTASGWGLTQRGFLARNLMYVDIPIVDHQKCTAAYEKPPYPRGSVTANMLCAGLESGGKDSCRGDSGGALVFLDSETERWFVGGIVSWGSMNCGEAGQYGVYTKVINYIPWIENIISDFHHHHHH

Binder | human MASP1 IC50 [1] [nM] | human MASP2 IC50 [2] [nM]
AICSRS[tBuAla]PPI[Pen]IPD-OH (disulfide 3-11; N-terminus assumed; SMILES CC[C@H](C)[C@H](NC(=O)[C@H](C)N)C(=O)N[C@H]1CSSC(C)(C)[C@@H](C(=O)N[C@H](C(=O)N2CCC[C@H]2C(=O)N[C@@H](CC(=O)O)C(=O)O)[C@@H](C)CC)NC(=O)[C@H]([C@@H](C)CC)NC(=O)[C@@H]2CCCN2C(=O)[C@@H]2CCCN2C(=O)[C@H](CC(C)(C)C)NC(=O)[C@H](CO)NC(=O)[C@H](CCCNC(=N)N)NC(=O)[C@H](CO)NC1=O) [AIC+SRS-((tBu)A)-PPI-(Pen)+IPD-OH] | 1.2 | 37
[NMeA]ICSRSLP[Oic]I[Pen]IPQ-NH2 (disulfide 3-11; N-terminus assumed; SMILES CC[C@H](C)[C@H](NC(=O)[C@H](C)NC)C(=O)N[C@H]1CSSC(C)(C)[C@@H](C(=O)N[C@H](C(=O)N2CCC[C@H]2C(=O)N[C@@H](CCC(N)=O)C(N)=O)[C@@H](C)CC)NC(=O)[C@H]([C@@H](C)CC)NC(=O)[C@@H]2C[C@@H]3CCCC[C@@H]3N2C(=O)[C@@H]2CCCN2C(=O)[C@H](CC(C)C)NC(=O)[C@H](CO)NC(=O)[C@H](CCCNC(=N)N)NC(=O)[C@H](CO)NC1=O) [((N-Me)A)-IC+SRSLP-(Oic)-I-(Pen)+IPQ-NH2] | 3.5 | 190
[Sar]ICSRSLP[Oic]I[Pen]IP[PEG6]-NH2 (disulfide 3-11; N-terminus assumed; SMILES CC[C@H](C)[C@H](NC(=O)CNC)C(=O)N[C@H]1CSSC(C)(C)[C@@H](C(=O)N[C@H](C(=O)N2CCC[C@H]2C(=O)NCCOCCOCCOCCOCCOCCOCCC(N)=O)[C@@H](C)CC)NC(=O)[C@H]([C@@H](C)CC)NC(=O)[C@@H]2C[C@@H]3CCCC[C@@H]3N2C(=O)[C@@H]2CCCN2C(=O)[C@H](CC(C)C)NC(=O)[C@H](CO)NC(=O)[C@H](CCCNC(=N)N)NC(=O)[C@H](CO)NC1=O) [((N-Me)G)-IC+SRSLP-(Oic)-I-(Pen)+IP-(PEG5(22 atoms))-NH2] | 3.5 | 90
[Orn]ICSRS[tBuAla]PPI[Pen]IP-OH (disulfide 3-11; N-terminus assumed; SMILES CC[C@H](C)[C@H](NC(=O)[C@@H](N)CCCN)C(=O)N[C@H]1CSSC(C)(C)[C@@H](C(=O)N[C@H](C(=O)N2CCC[C@H]2C(=O)O)[C@@H](C)CC)NC(=O)[C@H]([C@@H](C)CC)NC(=O)[C@@H]2CCCN2C(=O)[C@@H]2CCCN2C(=O)[C@H](CC(C)(C)C)NC(=O)[C@H](CO)NC(=O)[C@H](CCCNC(=N)N)NC(=O)[C@H](CO)NC1=O) [(Orn)-IC+SRS-((tBu)A)-PPI-(Pen)+IP-OH] | 3.6 | 130
[Sar]ICSRS[tBuAla]PPI[Pen]IP[PEG5]-NH2 (disulfide 3-11; N-terminus assumed; SMILES CC[C@H](C)[C@H](NC(=O)CNC)C(=O)N[C@H]1CSSC(C)(C)[C@@H](C(=O)N[C@H](C(=O)N2CCC[C@H]2C(=O)NCCOCCOCCOCCOCCOCCC(N)=O)[C@@H](C)CC)NC(=O)[C@H]([C@@H](C)CC)NC(=O)[C@@H]2CCCN2C(=O)[C@@H]2CCCN2C(=O)[C@H](CC(C)(C)C)NC(=O)[C@H](CO)NC(=O)[C@H](CCCNC(=N)N)NC(=O)[C@H](CO)NC1=O) [((N-Me)G)-IC+SRS-((tBu)A)-PPI-(Pen)+IP-(PEG4(19 atoms))-NH2] | 3.6 | 60
A[Abu]CSRS[tBuAla]PPI[Pen]IPD-NH2 (disulfide 3-11; N-terminus assumed; SMILES CC[C@H](NC(=O)[C@H](C)N)C(=O)N[C@H]1CSSC(C)(C)[C@@H](C(=O)N[C@H](C(=O)N2CCC[C@H]2C(=O)N[C@@H](CC(=O)O)C(N)=O)[C@@H](C)CC)NC(=O)[C@H]([C@@H](C)CC)NC(=O)[C@@H]2CCCN2C(=O)[C@@H]2CCCN2C(=O)[C@H](CC(C)(C)C)NC(=O)[C@H](CO)NC(=O)[C@H](CCCNC(=N)N)NC(=O)[C@H](CO)NC1=O) [A-(Abu)-C+SRS-((tBu)A)-PPI-(Pen)+IPD-NH2] | 3.7 | 68
[Sar][NMeI]CSRS[tBuAla]PPI[Pen]IP-NH2 (disulfide 3-11; N-terminus assumed; SMILES CC[C@H](C)[C@@H]1NC(=O)[C@@H]2CCCN2C(=O)[C@@H]2CCCN2C(=O)[C@H](CC(C)(C)C)NC(=O)[C@H](CO)NC(=O)[C@H](CCCNC(=N)N)NC(=O)[C@H](CO)NC(=O)[C@@H](NC(=O)[C@H]([C@@H](C)CC)N(C)C(=O)CNC)CSSC(C)(C)[C@@H](C(=O)N[C@H](C(=O)N2CCC[C@H]2C(N)=O)[C@@H](C)CC)NC1=O) [((N-Me)G)-((N-Me)I)-C+SRS-((tBu)A)-PPI-(Pen)+IP-NH2] | 3.7 | 590
[Sar]ICSRSLP[Oic]I[Pen]IP[PEG9(31 atoms)]-NH2 (disulfide 3-11) [((N-Me)G)-IC+SRSLP-(Oic)-I-(Pen)+IP-(PEG9(31 atoms))-NH2] | 3.7 | 100

Continued, values first:

human MASP1 IC50 [1] [nM] | human MASP2 IC50 [2] [nM] | Binder
3.5 | 140 | AICSRSLP[Oic]I[Pen]IPE-OH (disulfide 3-11; N-terminus assumed; SMILES CC[C@H](C)[C@H](NC(=O)[C@H](C)N)C(=O)N[C@H]1CSSC(C)(C)[C@@H](C(=O)N[C@H](C(=O)N2CCC[C@H]2C(=O)N[C@@H](CCC(=O)O)C(=O)O)[C@@H](C)CC)NC(=O)[C@H]([C@@H](C)CC)NC(=O)[C@@H]2C[C@@H]3CCCC[C@@H]3N2C(=O)[C@@H]2CCCN2C(=O)[C@H](CC(C)C)NC(=O)[C@H](CO)NC(=O)[C@H](CCCNC(=N)N)NC(=O)[C@H](CO)NC1=O) [AIC+SRSLP-(Oic)-I-(Pen)+IPE-OH]
2.13 | 126 | AICSRSL[Pro‑D2″][Oic]I[Pen]IPD-OH (disulfide 3-11) [AIC+SRSL-(Pro-D2)-(Oic)-I-(Pen)+IPD-OH]
3.6 | 74.5 | TICSRS[tBuAla]PPI[Pen]IPD-NH2 (disulfide 3-11; N-terminus assumed; SMILES CC[C@H](C)[C@H](NC(=O)[C@@H](N)[C@@H](C)O)C(=O)N[C@H]1CSSC(C)(C)[C@@H](C(=O)N[C@H](C(=O)N2CCC[C@H]2C(=O)N[C@@H](CC(=O)O)C(N)=O)[C@@H](C)CC)NC(=O)[C@H]([C@@H](C)CC)NC(=O)[C@@H]2CCCN2C(=O)[C@@H]2CCCN2C(=O)[C@H](CC(C)(C)C)NC(=O)[C@H](CO)NC(=O)[C@H](CCCNC(=N)N)NC(=O)[C@H](CO)NC1=O) [TIC+SRS-((tBu)A)-PPI-(Pen)+IPD-NH2]
3.7 | 56 | TICSRS[tBuAla]PPI[Pen]IPD-OH (disulfide 3-11; N-terminus assumed; SMILES CC[C@H](C)[C@H](NC(=O)[C@@H](N)[C@@H](C)O)C(=O)N[C@H]1CSSC(C)(C)[C@@H](C(=O)N[C@H](C(=O)N2CCC[C@H]2C(=O)N[C@@H](CC(=O)O)C(=O)O)[C@@H](C)CC)NC(=O)[C@H]([C@@H](C)CC)NC(=O)[C@@H]2CCCN2C(=O)[C@@H]2CCCN2C(=O)[C@H](CC(C)(C)C)NC(=O)[C@H](CO)NC(=O)[C@H](CCCNC(=N)N)NC(=O)[C@H](CO)NC1=O) [TIC+SRS-((tBu)A)-PPI-(Pen)+IPD-OH]

Source: patent US20210246166A1 (Bayer, published 2021)
